The target in assay [1] is Gαo-GDP (Drosophila melanogaster, UniProt P16378). Briefly: biochemical. How it is done: (§1) Hexahistidine-tagged Drosophila Gαo, Gαo[W132F; W212F] and Gαo[W132F; W259F] were purified following. In brief, Top10 bacteria transformed with the corresponding construct were grown in LB media until an OD600=0.6, expression was induced with 0.1 mM IPTG and cells further grown overnight at room temperature. Cells were harvested, resuspended in PBS supplemented with Complete Protease Inhibitor cocktail (Roche) and lysed with Lysozyme and sonication. Binding of the His6 tagged proteins to the Ni-NTA agarose was conducted in 10 mM Imidazole in PBS. After washing in 20 mM Imidazole/PBS the proteins were eluted in 200–250 mM Imidazole/PBS. […] The 36-mer GoLoco1 peptide and the GoLoco1 peptide with the dansyl (5-(dimethylamino)naphthalene-1-sulfonyl) group attached to the side chain of the N-terminal lysine were synthesized by Pepscan Presto BV. Non-dansylated GoLoco1 was dissolved in water, dansyl-GoLoco1 was dissolved at 10 mM in 50% propan-2-ol and stored at -20°C.
Gαo-GDP, sequence (P16378 other isoform, or with tags, fused parts or gaps): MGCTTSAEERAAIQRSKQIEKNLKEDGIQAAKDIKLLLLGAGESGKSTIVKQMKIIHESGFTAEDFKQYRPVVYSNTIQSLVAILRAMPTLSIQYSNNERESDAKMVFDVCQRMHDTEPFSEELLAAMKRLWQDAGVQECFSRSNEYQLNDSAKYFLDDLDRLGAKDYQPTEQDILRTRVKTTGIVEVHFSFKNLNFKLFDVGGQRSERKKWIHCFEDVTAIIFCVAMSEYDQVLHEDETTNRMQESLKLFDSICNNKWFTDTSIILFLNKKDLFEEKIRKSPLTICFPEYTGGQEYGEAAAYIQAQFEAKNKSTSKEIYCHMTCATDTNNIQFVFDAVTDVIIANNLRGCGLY
(§2) Fluorescence measurements were performed at RT using the Biotek SynergyMx plate reader. For all experiments, the Gαo subunits were pre-incubated with 1 mM GDP or GTPγS for >30 min at RT. For FRET measurements, preloaded Gαo was added in a final concentration of 10 μM to increasing concentration of dansylated GoLoco1 in HKB (50 mM Hepes-KOH, 100 mM KCl, 10 mM NaCl, 2 mM EGTA, 5 mM MgCl2, 1 mM DTT) and incubated for 30 min before measurement.

For assay [2], the target named is T1, Gαo-GTPγS (Drosophila melanogaster, UniProt P16378). Put plainly: biochemical. The class given is binding. Details: His6 (hexahistidine); made in house; host or cells: E. coli Top10. How it is done:
Trp-to-dansyl FRET was measured as above.

The target of assay [3] is T1, Gαo-GTPγS. Briefly: biochemical. How it is done: as §1, §2
For assay [4], the target named is Hexahistidine-tagged Drosophila Gαo (class II isoform), wild type (Drosophila). Put plainly: FRET or BRET; Trp-to-dansyl FRET (excitation 280 nm, emission 535 nm), saturation: 10 μM Gαo preloaded with 1 mM GTPγS added to increasing dansylated GoLoco1; HKB buffer, 30 min, RT.
The target is the same in assay [5]. Put plainly: FRET or BRET; quenching of the donor: tryptophan fluorescence (excitation 280 nm, emission 330 nm) of 5 μM Gαo preloaded with GDP, 30 min with dansylated against unlabelled GoLoco1, RT; E = 1 - FD-A/FD.
The target in assay [6] is Hexahistidine-tagged Drosophila Gαo[W132F; W212F] (Drosophila). The description is as above.
Assay [7] deals with Hexahistidine-tagged Drosophila Gαo[W132F; W259F] (Drosophila). The assay is described as above.
Assay [8] has the same target. Put plainly: FRET or BRET; quenching of the donor: tryptophan fluorescence (excitation 280 nm, emission 330 nm) of 5 μM Gαo preloaded with GTPγS, 30 min with dansylated against unlabelled GoLoco1, RT; E = 1 - FD-A/FD.
Assay [9] has as its target Hexahistidine-tagged Drosophila Gαo (class II isoform), wild type (Drosophila). Briefly: FRET or BRET; Trp-to-dansyl FRET (excitation 280 nm, emission 535 nm), saturation: 10 μM Gαo preloaded with 1 mM GDP added to increasing dansylated GoLoco1; HKB buffer (50 mM Hepes-KOH, 100 mM KCl, 10 mM NaCl, 2 mM EGTA, 5 mM MgCl2, 1 mM DTT), 30 min, RT.
For assay [10] the target is unchanged. Put plainly: FRET or BRET; competition: Gαo preloaded with GDP and dansylated GoLoco1 at 1:1 (5–10 μM), pre-incubated 10 min, then increasing unlabelled GoLoco1 in HKB, 30 min, RT; Trp-to-dansyl FRET.
Assay [11] shares this target. Put plainly: FRET or BRET; competition: Gαo preloaded with GTPγS and dansylated GoLoco1 at 1:1 (5–10 μM), pre-incubated 10 min, then increasing unlabelled GoLoco1 in HKB, 30 min, RT; Trp-to-dansyl FRET.

The results in this text go back to paper PMC4660580, “Mode of interaction of the Gαo subunit of heterotrimeric G proteins with the GoLoco1 motif of Drosophila Pins is determined by guanine nucleotides” (Bioscience Reports, 2015).

pKd, pKi: −log10 of the molar value. Ends that are not written are not given here. Peptide text beside a SMILES is read from it. * marks the point of attachment. Dansyl = CN(C)c1cccc2c(S(=O)(=O)*)cccc12

T1 sequence (P16378 other isoform, or with tags, fused parts or gaps): as above

On to `CC[C@H](C)[C@H](NC(=O)[C@H](CO)NC(=O)[C@H](CS)NC(=O)[C@H](CCCNC(=N)N)NC(=O)[C@H](CCC(N)=O)NC(=O)[C@H](CC(=O)O)NC(=O)[C@H](CC(=O)O)NC(=O)[C@H](CCSC)NC(=O)[C@H](CCCNC(=N)N)NC(=O)[C@H](CCCCN)NC(=O)[C@H](CO)NC(=O)[C@H](CCC(N)=O)NC(=O)[C@H](CO)NC(=O)[C@H](CCCNC(=N)N)NC(=O)[C@H](CO)NC(=O)[C@H](CC(C)C)NC(=O)[C@H](CCSC)NC(=O)[C@H](CCC(=O)O)NC(=O)[C@H](Cc1ccccc1)NC(=O)[C@H](Cc1ccccc1)NC(=O)[C@H](CC(=O)O)NC(=O)[C@H](CC(=O)O)NC(=O)[C@H](CC(=O)O)NC(=O)[C@@H](N)CCCCNS(=O)(=O)c1cccc2c(N(C)C)cccc12)C(=O)N[C@@H](CCCCN)C(=O)N[C@H](C(=O)N[C@@H](CC(N)=O)C(=O)N1CCC[C@H]1C(=O)N[C@@H](CO)C(=O)NCC(=O)N[C@@H](C)C(=O)N1CCC[C@H]1C(=O)N[C@@H](C)C(=O)N[C@H](C(=O)N[C@@H](C)C(=O)N[C@H](C(=O)O)[C@@H](C)O)C(C)C)C(C)C` [dGoLoco1] (H-K(Dansyl)DDDFFEMLSRSQSKRMDDQRCSIKVNPSGAPAVAT-OH), for which the values for the pKd in assay [1] and in assay [2] were 5.34 and 5.68, respectively.
For the molecule “KDDDFFEMLSRSQSKRMDDQRCSIKVNPSGAPAVAT [GoLoco1]”, the negative-log Ki (pKi) in [1] is 4.75; in [3], 4.97.
Turning to “dansylated GoLoco1 peptide of Drosophila Pins”, the figures for the pKd in [4] and in assay [9] were 5.68 and 5.34, respectively. For the same molecule, the FRET efficiency E in [5] is 0.474; in assay [6], 0.478; in assay [7], 0.544; in assay [8], 0.127.
With “GoLoco1 peptide of Drosophila Pins (unlabelled)”, the figures for the negative logarithm of the Ki (pKi) in [10] and in assay [11] were 4.75 and 4.97, respectively.
